In assay [1] the target is T1, PSMA Fab (biotinylated (site not stated)).
T1 construct: Biotinylated PSMA Fab captured on neutravidin plates in the phage ELISA; also called Anti-PSMA Fab; 006 PSMA Fab
In words: phage ELISA; biotinylated PSMA Fab on neutravidin plate, clonal phage supernatant, anti-M13-HRP detection.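 Further: wells were preincubated with blocking buffer containing PSMA antigen or with blocking buffer only, then phage supernatant was added without washing for a brief incubation.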 On the technique in general: In an ELISA, binding on a coated surface is turned into a signal by an enzyme label.

Assay [2] concerns the target T1, PSMA Fab. In words: phage ELISA; PSMA Fab-coated wells pre-incubated with PSMA antigen as competitor, anti-M13-HRP detection.
Procedure: (§1) Clonal phage were harvested as crude supernatants and screened via standard ELISAs. […] Prior to the addition of clonal phage. wells were incubated with blocking buffer and PSMA antigen or blocking buffer alone. Without washing or aspirating, clonal phage supernatants were then added to the wells and incubated for a short time. Wells were then washed followed by detection of bound phage using a horse radish conjugated anti-M13 antibody.
The target in assay [3] is T2, PSMA Fab (SEQ ID NOs: 19, 20).
T2 construct: Biotinylated and captured on neutravidin coated plates in the phage ELISA; also called Anti-PSMA Fab; 006 PSMA Fab
In words: phage ELISA; biotinylated PSMA Fab on neutravidin plate, anti-M13 HRP; no PSMA antigen.
Procedure: as §1

Assay [4] shares this target. In words: phage ELISA; biotinylated PSMA Fab on neutravidin plate, anti-M13 HRP; competitor PSMA antigen pre-incubated.
Procedure: as §1
For assay [5], the target named is T3, PSMA Fab (006 PSMA Fab).
T3 construct: also called Anti-PSMA Fab; anti-PSMA Fab
In words: clonal phage ELISA; biotinylated PSMA Fab on neutravidin plate, wells pre-incubated with PSMA antigen as competitor; anti-M13 HRP detection.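 Further: crude clonal phage supernatants added to antigen-treated wells without a wash, incubated briefly, then bound phage read out via horse radish–conjugated anti-M13 antibody.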
Procedure: as §1

The target of assay [6] is T3, PSMA Fab (006 PSMA Fab). In words: clonal phage ELISA; biotinylated PSMA Fab on neutravidin plate, blocking buffer alone; anti-M13 HRP detection.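 Further: crude clonal phage supernatants added without washing to wells pretreated with blocking buffer with or without PSMA antigen, short incubation, then washed before detecting bound phage.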
Procedure: as §1

Where no end group is shown, it is not given here.

B1: Phage-2549 (peptide)
peptide: VQKWCIPPWMCTHI
For B1, in the assay with PSMA Fab [1], the “Phage binding ELISA signal, Anti-PSMA Fab” value is 1.14. The “Phage binding ELISA signal, Anti-PSMA Fab with PSMA antigen” value with PSMA Fab [2] was 0.0958.

B2: Phage-2548 (peptide)
peptide: FENWCTPKWMCIGV
Turning to B2, the “Phage binding ELISA signal, Anti-PSMA Fab” value with PSMA Fab [1] was 1.14. Further, in the assay with PSMA Fab [2], the “Phage binding ELISA signal, Anti-PSMA Fab with PSMA antigen” value was 0.102.

B3: Phage-2564 (peptide)
peptide: SEIWCIPAWMCQST
For B3, the results for the “phage binding ELISA signal” value in assay [3] and in assay [4] were 1.11 and 0.0851, respectively.

B4: Phage-2522 (peptide)
peptide: HERSCIPAWMCWRQ
notes: Row prints H E R S - I - A - - - W R Q
As to B4, the “Phage binding ELISA signal, Anti-PSMA Fab in presence of PSMA antigen” value (“Phage binding ELISA signal … of PSMA antigen” for short) with PSMA Fab (006 PSMA Fab) [5] worked out at 0.0706. Moreover, the “Phage binding ELISA signal, Anti-PSMA Fab” value with PSMA Fab (006 PSMA Fab) [6] came to 1.18.

B5: Phage-2563 (peptide)
peptide: NWKWCIPEWMCAAE
modifications: cysteine pairing not given here; also: fused to phage pIII, linker and fusion site not given here
Regarding B5, the “phage binding ELISA signal” value in assay [3] was 1.11; in assay [4], 0.0635.

B6: Phage-2518 (peptide)
peptide: IDPRCIPEWMCIGY
notes: Row prints - D P R - I - E - - - I - Y
As for B6, in the assay with PSMA Fab (006 PSMA Fab) [5], the “Phage binding ELISA signal … of PSMA antigen” value was found to be 0.0633. In addition, the “Phage binding ELISA signal, Anti-PSMA Fab” value with PSMA Fab (006 PSMA Fab) [6] was 1.18.

B7: Phage-2553 (peptide)
peptide: GEKACIPAWMCSEN
Regarding B7, the “Phage binding ELISA signal, Anti-PSMA Fab” value in the assay with PSMA Fab [1] was 1.13. In addition, the “Phage binding ELISA signal, Anti-PSMA Fab with PSMA antigen” value with PSMA Fab [2] is 0.0736.

B8: Phage-2561 (peptide)
peptide: YAPWCIPLWMCLDR
Consider B8, for which the “phage binding ELISA signal” value in assay [3] came out at 1.11; in assay [4], 0.161.

B9: Phage-2557 (peptide)
peptide: VLKWCTPAWMCTGF
As to B9, the “Phage binding ELISA signal, Anti-PSMA Fab” value with PSMA Fab [1] is 1.12. Also, in the assay with PSMA Fab [2], the “Phage binding ELISA signal, Anti-PSMA Fab with PSMA antigen” value was determined as 0.0805.

B10: Phage-2523 (peptide)
peptide: IVRWCTPEWMCVGF
notes: Row prints - V R W - T - E - - - V - -
With B10, in the assay with PSMA Fab (006 PSMA Fab) [5], the “Phage binding ELISA signal … of PSMA antigen” value is 0.0674. In addition, in the assay with PSMA Fab (006 PSMA Fab) [6], the “Phage binding ELISA signal, Anti-PSMA Fab” value turned out to be 1.18.

B11: Phage-2551 (peptide)
peptide: EPKWCTPPWMCQSV
Regarding B11, in the assay with PSMA Fab [1], the “Phage binding ELISA signal, Anti-PSMA Fab” value was found to be 1.14. Further, in the assay with PSMA Fab [2], the “Phage binding ELISA signal, Anti-PSMA Fab with PSMA antigen” value was determined as 0.0734.

B12: Phage-2520 (peptide)
peptide: PIPLCIPLWMCEER
notes: Row prints P I P - - I - L - - - E E R
As to B12, in the assay with PSMA Fab (006 PSMA Fab) [5], the “Phage binding ELISA signal … of PSMA antigen” value amounted to 0.0838. Moreover, the “Phage binding ELISA signal, Anti-PSMA Fab” value with PSMA Fab (006 PSMA Fab) [6] amounted to 1.18.

B13: Phage-2562 (peptide)
peptide: IAKLCTPAWMCERH
For the molecule B13, the “phage binding ELISA signal” value was found to be 1.11 in assay [3] and 0.0803 in assay [4].

B14: Phage-2525 (peptide)
peptide: VITWCTPPWMCSGW
notes: Row prints V I T W - T - P - - - S - W
In the case of B14, in the assay with PSMA Fab (006 PSMA Fab) [5], the “Phage binding ELISA signal … of PSMA antigen” value is 0.0911. The “Phage binding ELISA signal, Anti-PSMA Fab” value with PSMA Fab (006 PSMA Fab) [6] stood at 1.17.

B15: Phage-2543 (peptide)
peptide: SEHWCIPQWMCQSV
modifications: cysteine pairing not given here; also: fused to phage pIII, linker and fusion site not given here
As to B15, the “Phage binding ELISA signal, Anti-PSMA Fab” value in the assay with PSMA Fab [1] was 1.15. Moreover, the “Phage binding ELISA signal, Anti-PSMA Fab with PSMA antigen” value with PSMA Fab [2] is 0.114.

B16: Phage-2545 (peptide)
peptide: LYNWCTPAWMCYGY
B16: the “Phage binding ELISA signal, Anti-PSMA Fab” value with PSMA Fab [1] was 1.15. For the same molecule, the “Phage binding ELISA signal, Anti-PSMA Fab with PSMA antigen” value in the assay with PSMA Fab [2] was determined as 0.284.

B17: Phage-2560 (peptide)
peptide: GVMWCIPQWMCVTA
B17: the “phage binding ELISA signal” value is 1.12 in assay [3] and 0.104 in assay [4].

B18: Phage-2556 (peptide)
peptide: LQTWCIPPWMCEGG
In the case of B18, the “Phage binding ELISA signal, Anti-PSMA Fab” value in the assay with PSMA Fab [1] was 1.12. Also, in the assay with PSMA Fab [2], the “Phage binding ELISA signal, Anti-PSMA Fab with PSMA antigen” value came to 0.0675.

B19: Phage-2550 (peptide)
peptide: FHEWCIPSWMCFKE
As to B19, in the assay with PSMA Fab [1], the “Phage binding ELISA signal, Anti-PSMA Fab” value came out at 1.14. Also, the “Phage binding ELISA signal, Anti-PSMA Fab with PSMA antigen” value in the assay with PSMA Fab [2] was 0.0984.

B20: Phage-2559 (peptide)
peptide: WDKWCTPPWMCQVH
For the molecule B20, the figures for the “phage binding ELISA signal” value in assay [3] and in assay [4] were 1.12 and 0.0758, respectively.

B21: Phage-2544 (peptide)
peptide: PLKWCIPQWMCTEA
For the molecule B21, the “Phage binding ELISA signal, Anti-PSMA Fab” value in the assay with PSMA Fab [1] came to 1.15. In addition, the “Phage binding ELISA signal, Anti-PSMA Fab with PSMA antigen” value with PSMA Fab [2] came out at 0.0825.

B22: Phage-2524 (peptide)
peptide: AVKWCTPAWMCSGF
notes: Row prints A V K W - T - A - - - S - -
Take B22: the “Phage binding ELISA signal … of PSMA antigen” value with PSMA Fab (006 PSMA Fab) [5] amounted to 0.0682. Further, the “Phage binding ELISA signal, Anti-PSMA Fab” value in the assay with PSMA Fab (006 PSMA Fab) [6] came out at 1.18.

B23: Phage-2546 (peptide)
peptide: ESHWCIPAWMCEQF
On to B23, for which, in the assay with PSMA Fab [1], the “Phage binding ELISA signal, Anti-PSMA Fab” value came out at 1.14. In the assay with PSMA Fab [2], the “Phage binding ELISA signal, Anti-PSMA Fab with PSMA antigen” value is 0.0589.

B24: Phage-2526 (peptide)
peptide: WEKWCTPSWMCSAG
notes: Row prints W E K W - T - S - - - S A G
On to B24, for which the “Phage binding ELISA signal … of PSMA antigen” value in the assay with PSMA Fab (006 PSMA Fab) [5] was found to be 0.0743. In addition, the “Phage binding ELISA signal, Anti-PSMA Fab” value in the assay with PSMA Fab (006 PSMA Fab) [6] came to 1.17.

B25: Phage-2555 (peptide)
peptide: TQKLCIPEWMCEAM
B25: in the assay with PSMA Fab [1], the “Phage binding ELISA signal, Anti-PSMA Fab” value was 1.12. Moreover, the “Phage binding ELISA signal, Anti-PSMA Fab with PSMA antigen” value with PSMA Fab [2] was determined as 0.0698.

B26: Phage-2558 (peptide)
peptide: WENWCTPTWMCWPN
For B26, the “phage binding ELISA signal” value was 1.12 in assay [3] and 0.0834 in assay [4].

B27: Phage-2554 (peptide)
peptide: MFKWCTPQWMCETM
For the molecule B27, in the assay with PSMA Fab [1], the “Phage binding ELISA signal, Anti-PSMA Fab” value was 1.13. Moreover, the “Phage binding ELISA signal, Anti-PSMA Fab with PSMA antigen” value with PSMA Fab [2] was 0.124.

B28: Phage-2552 (peptide)
peptide: AEYWCIPRWMCSQH
In the case of B28, in the assay with PSMA Fab [1], the “Phage binding ELISA signal, Anti-PSMA Fab” value was determined as 1.14. In addition, in the assay with PSMA Fab [2], the “Phage binding ELISA signal, Anti-PSMA Fab with PSMA antigen” value was found to be 0.0882.

B29: Phage-2521 (peptide)
peptide: DNKWCIPEWMCFAS
notes: Row prints D N K W - I - E - - - F A S
Regarding B29, the “Phage binding ELISA signal … of PSMA antigen” value in the assay with PSMA Fab (006 PSMA Fab) [5] was 0.0796. Moreover, the “Phage binding ELISA signal, Anti-PSMA Fab” value with PSMA Fab (006 PSMA Fab) [6] amounted to 1.18.

B30: Phage-2519 (peptide)
peptide: VPIWCTPEWMCSGF
notes: Row prints V P I W - T - E - - - S - -
B30: the “Phage binding ELISA signal … of PSMA antigen” value with PSMA Fab (006 PSMA Fab) [5] came out at 0.0879. Moreover, the “Phage binding ELISA signal, Anti-PSMA Fab” value in the assay with PSMA Fab (006 PSMA Fab) [6] turned out to be 1.18.

B31: Phage-2547 (peptide)
peptide: EGKWCIPDWMCAAH
modifications: cysteine pairing not given here; also: fused to phage pIII, linker and fusion site not given here
As to B31, the “Phage binding ELISA signal, Anti-PSMA Fab” value with PSMA Fab [1] worked out at 1.14. For the same molecule, the “Phage binding ELISA signal, Anti-PSMA Fab with PSMA antigen” value with PSMA Fab [2] turned out to be 0.0598.

For the origin of these results see patent publication US20260242478A1 (published 2026).
